# Test system: MS2 coat protein
# Assay: apparent KD of MS2 coat protein; designed switch direction (-1 OFF switch, 1 ON switch): 1; higher = weaker reporter binding
# Outline: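 Designed RNA switches with common flanks were transcribed on Illumina chips by stalled E. coli RNA polymerase and titrated with SNAP-549-labelled MS2 coat protein, from 0.7 or 1.5 nM doubling to 3 µM, in Tris-HCl pH 7.5 buffer with KCl, MgCl2, BSA, DTT, tRNA and Tween-20. Steps lasted 0.8–1.5 h (lowest) to 10–20 min (highest). Titrations ran without input, with 200 uM small-molecule ligand, or with an oligonucleotide input. Normalised cluster fluorescence was curve-fitted, and apparent KD is the per-design median over clusters.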
# [1] = Eterna round: R95, input ligand: FMN 200 uM
# [2] = Eterna round: R95, input ligand: microRNA oligo, concentration not stated
# [3] = Eterna round: R95, input ligand: none
# [4] = input ligand: microRNA oligo, concentration not stated
Sequence,apparent KD of MS2 coat protein [1] [nM],apparent KD of MS2 coat protein [2] [nM],apparent KD of MS2 coat protein [3] [nM],apparent KD of MS2 coat protein (input ligand: FMN 200 uM) [nM],apparent KD of MS2 coat protein [4] [nM],apparent KD of MS2 coat protein (input ligand: none) [nM]
GGUCCAGCCUGAGCUGGACCGAAGCGUGUACAUGAGGAUCACCCAUGUCAUGUACAAGCUUUUUGCUCGUCUUAUUG [JL-shm-2.10 JL Mod] (puzzle: Sensor for hsa-mir-208a),149,18.8,285,–,–,–
"GUAGCAUACCGAGGAUAUUCAUAUUACAUGAGGAUCACCCAUGUUAUAUAGGCCAAAAGGCCUUGGGAGAAGGCGGAAUGCUAC [Xeonanis - 20 Mod9] (Eterna round: R96, puzzle: Same State NG 2)",–,–,–,10.3,9.73,14.7
"UUAAUAAUGAUAGGAUAUACAUGAGGAAUUCUCGUAGAAGGAUCAUGACAUGAGGAUCACCCAUGUAACGCUCCGUAGAGCGUA [Mat - Same State NG 1 - JL mod - D36] (Eterna round: R96, puzzle: Same State NG 1)",–,–,–,413,321,447
CAAGCUUGGGUCGUCCCGCUCGUCUACAAACAUGAGGAUCACCCAUGUAAAAUCUAAAAUUCAAAUCUAUCUCUAAA [Getienre] (puzzle: Sensor for hsa-mir-208a),515,20.9,563,–,–,–
"CUCCUAUCGGGAGGAUAUGGUGCCUUGUUGGUGCUAGAAGGUCCAACAUGAGGAUCACCCAUGUGGGAGUGGUUGAGAGACCUC [SS NG10LRO13] (Eterna round: R96, puzzle: Same State NG 1)",–,–,–,131,105,137
"AUGAAGAAUUAAGGAUAUUGAUUACAUAUGUUUAACAUGAGGAUCACCCAUGUGGGUUGCGGUAUCGAGAAGGUAAAUUAAAAG [Mat - same State NG 2 - JL mod - D88] (Eterna round: R96, puzzle: Same State NG 2)",–,–,–,–,156,–
"GAGCCAGUCCGAGGAUAUUCAUAUUAACACAUGAGGAUCACCCAUGUAGGCUCAGAAGAGCCUUGGGAGAAGGCGGACUGGCUC [SS-NG2-LRO14] (Eterna round: R96, puzzle: Same State NG 2)",–,–,–,35.2,227,311
GACAAUCUAUCUGAGGAUAUCAUGAAAAAAACAUGAGGAUCACCCAUGUGCAGGAAAACUGCAUAUGAGAAGGCAGAUAGAUUGA [salish99_SS2_r3_009] (puzzle: Same State 2),19.7,155,1190,–,–,–
"AUCCGAACCAUAGGAUAUACUGGCCUCGGGCCAGUAGAAGGGUGGGACAUGAGGAUCACCCAUGUAAAGCACAAUCAGUGCAAA [Ceramace] (Eterna round: R96, puzzle: Same State NG 1)",–,–,–,167,119,151
CGGCGCUGUUGAGAGGAUAUGCGGUGAUGGACAUGAGGAUCACCCAUGUUAGCGAUAGCAUUACGGUAGAAGGCUCUACAGCUGC [Soteed Omei mod 6] (puzzle: Same State 2),–,18.9,–,–,–,–
"GUAGCAUACCGAGGAUAUUCAUAUACAUGAGGAUCACCCAUGUUAAAUAAUAGGCGAAAGCCUUGGGAGAAGGCGGAAUGCUAC [Xeonanis - 20 Mod70] (Eterna round: R96, puzzle: Same State NG 2)",–,–,–,10.3,9.72,12.6
"GGUCGGACUACAUGAGGAUCACCCAUGUGUGCGGAAACGCCAUAGGAUAUCUGUCCGAAAAGGUCAGAGAAGGGUGAACCGACC [Fiskers NG3ss - 67] (Eterna round: R96, puzzle: Same State NG 3)",–,–,–,882,30.1,73.9
"UGUUAUUAGACAGGAUAUUGAAUGUUAAGUAUUAACAUGAGGAUCACCCAUGUAUUUGAUUGGUACAAGAAGGGUCAUGUUCCU [JR_SSNG2_Sub016] (Eterna round: R96, puzzle: Same State NG 2)",–,–,–,–,399,–
"GGUGGGUUGCUGCCGGCACAUGAGGAUCACCCAUGUUUUGGGAAGGAUAUGGUACCUAUUUGGUACCAGAAGGUCCCGUUGGUG [salish99_SSNG3_r04_709] (Eterna round: R96, puzzle: Same State NG 3)",–,–,–,978,449,898
UCUUGGUUUUUGCUCGUUUUUUGUGUUGAACAUGAGGAUCACCCAUGUAUUGUACGGUCCGGUUUGAUAGUGGUCCA [JMF 45] (puzzle: Sensor for hsa-mir-208a),111,71.6,120,–,–,–
UCUUAUAAUAAUAUAAUUCAUUUGAUAAAACAUGAGGAUCACCCAUGUCCUACUUUUUUUAAUCAUUUUAACUUUAA [The 7 c's] (puzzle: Sensor for hsa-mir-208a),45.3,62.6,63.5,–,–,–

Sequence,apparent KD of MS2 coat protein [1] [nM],apparent KD of MS2 coat protein [2] [nM],apparent KD of MS2 coat protein [3] [nM],apparent KD of MS2 coat protein (input ligand: FMN 200 uM) [nM],apparent KD of MS2 coat protein [4] [nM],apparent KD of MS2 coat protein (input ligand: none) [nM]
"AUUUUUAAUGCAGGAUAUGAUUAACAUGAGGAUCACCCAUGUGGUGUUGUGAGUAAGGAGAGUGAUCAGAAGGGCAUUUUGUUU [JMF's solution 83] (Eterna round: R96, puzzle: Same State NG 2)",–,–,–,747,400,687
"CCGAUGAUAGGACAGGAUAUGACUGUCGUCACAUGAGGAUCACCCAUGUCCCGGCAAUGCCACCGUUAGAAGGGUCCCAUCUCGG [Uslainarin] (Eterna round: R96, puzzle: Same State 2)",–,–,–,18.2,18.6,23.8
"UAUCCAUAGAUAGGAUAUUAGUGAACAUGAGGAUCACCCAUGUUUUGCUUGGUUUUAAGUUAAUCUGAGAAGGAUCUUGAUGAA [SameState NG2 #5] (Eterna round: R96, puzzle: Same State NG 2)",–,–,–,20.3,14.6,20.4
AUAUAACAUGAGGAUCACCCAUGUCUCUAAAGUCGAGGAUAUGGGCAGGUUAUAUCCGAACCAGAAGGCGGGUUAU [SS1 Teenbexe 8] (puzzle: Same State 1),177,123,146,–,–,–
"UAGUGCGUUAGAGGAUAUUCUAAAAUAAAAUAAAAGACAUGAGGAUCACCCAUGUAUGUACAUGGGAAGAAGGCUGAUGUGCUA [Omei SS(NG)2 Bv1] (Eterna round: R96, puzzle: Same State NG 2)",–,–,–,–,296,–
CGCCGACAUGAGGAUCACCCAUGUGAGCGACUCACAGGAUAUACGCGAUAACAAAGUCGCGUAGAAGGGUGCUCCU [Iscezaso] (puzzle: Same State 1),23.4,19.2,23.3,–,–,–
UACAAUCUAUCUGAGGAUAUCAUGAAAAAAACAUGAGGAUCACCCAUGUGCAGGAAAACUGCAUAUGAGAAGGCAGAUAGAUUGG [salish99_SS2_r3_007] (puzzle: Same State 2),14.3,3390,11700,–,–,–
"UGGUACAUGGGAGGAUAUCAUGCAGACAUGAGGAUCACCCAUGUAGCCAUGGAGACAUGGGUAUAUGAGAAGGCCCAUGUACCU [JL SSNG1 3.53] (Eterna round: R96, puzzle: Same State NG 2)",–,–,–,145,37.7,207
"AGUCCAGCCUGAGCUGGACAAAAGCAUGUACAUGAGGAUCACCCAUGUCAUGUACAAGCUUUUUGCUCGAAAUAAUA [Mat - hsa-mir-208a - Mod of JL - D32] (Eterna round: R96, puzzle: Sensor for hsa-mir-208a)",–,–,–,626,14.4,561
"AUAGUUUCCGAAGGAUAUGAUGAGGAUCACCCAUCAGAAGGUUGGCUAUUGGGCUGACAUGAGGAUCACCCAUGUUUCGGUGUU (Eterna round: R96, puzzle: Same State NG 1)",–,–,–,33,29.1,41.4
AGUCCAGCCUGAGCUGGACAAAAGCAUGUACAUGAGGAUCACCCAUGUCGUGUACAAGCUUUUUGCUCGUCUUAAUA [Zipper 49 - 4] (puzzle: Sensor for hsa-mir-208a),285,13.5,311,–,–,–
AUUAUACAUGAGGAUCACCCAUGUCAACAAAGUCGAGGAUAUGGGCAAAUAAAAUAAGAACCAGAAGGCGAAUAAU [salish99_ss1_r3_069] (puzzle: Same State 1),51.3,155,259,–,–,–
"UUUAGAUCGCGAGGAUAUCGCGAGGAUCACCCGUGAGAAGGCGCAGAGCCGAGGAUCACCCGGCUGAUCCUGAGGAGGAGGUCU (Eterna round: R96, puzzle: Same State NG 1)",–,–,–,106,184,269
"ACUCUACAUGAGGAUCACCCAUGUUGAGCCCAUCAAGGAUAUGGGUCUUAAUCGCGGGUGCCAGAAGGUGAUGGUU [Xesove] (Eterna round: R96, puzzle: Same State 1)",–,–,–,313,46.8,94.3
AAAAGACAUGAGGAUCACCCAUGUAUGAAAAGUACAGGAUAUCACGCGCUAAAAUGCGAGUGAGAAGGGUGAAAAU [Oronen] (puzzle: Same State 1),4350,51.3,180,–,–,–
"UACAAUCUAUCUGAGGAUAUCAUGAAAAAAACAUGAGGAUCACCCAUGUGCAGGAAAACUGCAUAUGAGAAGGCAGAUAGAUUGG [salish99_SS2_r3_007] (Eterna round: R96, puzzle: Same State 2)",–,–,–,–,505,–
